Measurements: patent US10759835B2, “Monomeric streptavidin mutants, methods of using the same and processes of manufacturing proteins” (The Research Foundation for The State University of New York, priority 2016, dated 2020)
Where a chain is given by its changes, count along the chain named. Numbers in names are those of the source. Where “and” joins values, the source holds several entries; their conditions need not be identical. Identical values can stand only once.

B1: mSA-R: monomeric streptavidin mutant SEQ ID NO: 2, S25R (S13R in SEQ ID NO: 1 numbering) (protein)
chain: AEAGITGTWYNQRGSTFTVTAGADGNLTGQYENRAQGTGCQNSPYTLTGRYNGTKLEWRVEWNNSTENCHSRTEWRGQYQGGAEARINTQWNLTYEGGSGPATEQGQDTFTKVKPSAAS
modifications: Modified streptavidin
B2: mSA-DR: monomeric streptavidin mutant SEQ ID NO: 7, Q24D, S25R (protein)
chain: B1 chain with Q12D
modifications: modified streptavidin
B3: mSA-DRWT: monomeric streptavidin mutant SEQ ID NO: 11, Q24D, S25R, T48W, E124T (protein)
chain: B1 chain with Q12D, T38W, E104T
modifications: Modified streptavidin
B4: mSA-H: monomeric streptavidin mutant SEQ ID NO: 5, S25H (protein)
chain: B1 chain with R13H
modifications: Modified streptavidin
B5: mSA-ERF: monomeric streptavidin mutant SEQ ID NO: 8, Q24E, S25R, T48F (protein)
chain: B1 chain with Q12E, T38F
modifications: Modified streptavidin
B6: mSA-ER: monomeric streptavidin mutant SEQ ID NO: 6, Q24E, S25R (protein)
chain: B1 chain with Q12E
modifications: Modified streptavidin
B7: mSA-DRF: monomeric streptavidin mutant SEQ ID NO: 9, Q24D, S25R, T48F (protein)
chain: B1 chain with Q12D, T38F
modifications: Modified streptavidin
B8: mSA-ERWT: monomeric streptavidin mutant SEQ ID NO: 10, Q24E, S25R, T48W, E124T (protein)
chain: B1 chain with Q12E, T38W, E104T
modifications: Modified streptavidin

Assay: Fluorescence polarization spectroscopy, biotin dissociation rate (koff)
Format: binding
Conditions: not given
Procedure: FIG. 4. In vitro characterization of purified mSA mutants. a) Stability of mSA-RF and mSA-RWT in PBS was measured by circular dichroism spectroscopy with or without biotin. b) Fluorescence polarization spectroscopy was used to measure the dissociation rate of biotin-fluorescein. The dissociation rate, koff, was computed by fitting normalized fluorescence polarization data, or bound fraction f, to an exponentially decaying function, i.e. ƒ=e^−k^off^*t The measurements were taken at 37° C. c) The equilibrium affinity of binding Kd between mSA-RF and biotin-fluorescein was measured by FP. d) mSA-S25H and mSA-RF were analyzed by size exclusion chromatography to estimate their molecular weights in solution. Each mutant eluted with a retention time that was consistent with monomeric streptavidin. The molecular weight standards (arrows) correspond to 66.0, 29.0, 12.4 and 6.5 kDa from left to right.
The binding of biotinylated fluorescein (bf, AnaSpec) was measured using a microplate reader (SpectraMax® i3 Microplate reader from Molecular Devices) in flat bottom 96 well plates (Sterilin Ltd). To measure Kd, 100 nM bf was first mixed with titrating amounts of mSA in PBS containing 0.1 mg/ml bovine serum albumin (BSA). After overnight incubation at room temperature, the fluorescence polarization values were measured and fit to the quadratic binding equation (Hsu and Park, 2010, J Mol Graph Model, 29, 295-308). To measure the off rate (koff), 10 nM bf was first mixed with 50 nM mSA and incubated for 2 hr to form a biotin-mSA complex. To observe dissociation of bf, excess free biotin was added to a final concentration of 100 μM and recording of fluorescence was started immediately. The intensity of polarized fluorescence was measured at various time points and normalized with respect to the value at t=0 min. The intensities were fit to an exponentially decaying function e^−k^off^*t to compute koff. The dissociation half-life t1/2=0.693/koff.
We measured the biotin dissociation rate of various mSA mutants by fluorescence polarization spectroscopy. Table 2 presents the biotin dissociation rate (koff) of various mutants measured by fluorescence polarization spectroscopy. The S25R mutation lowered koff by nearly 21 fold compared to the original mSA and 3.3 fold compared to the S25H mutant (Table 2, FIG. 4b).

Molecule | fold lowering of koff compared to the S25H mutant [fold] | fold lowering of koff compared to the original mSA
B1 | 3.3 | ~21 fold and 25 fold

Same assay, conditions: dissociation half-life t1/2=0.693/koff, biotin-fluorescein, 37° C.

Molecule | t1/2 [h]
B1 | 4.62 ± 0.2
B2 | 0.568 ± 0.02
B3 | 0.717 ± 0.0233
B4 | 1.41 ± 0.0517
B5 | 1.26 ± 0.03
B6 | 1.14 ± 0.102
B7 | 0.778 ± 0.0217
B8 | 1.19 ± 0.0283

Same assay, conditions: dissociation half-life t1/2=0.693/koff, biotin-fluorescein, 37° C.; listed as S25R

Molecule | t1/2 [h]
B1 | 4.62

Same assay, conditions: dissociation of biotin-fluorescein, excess free biotin 100 μM, 37° C.

Molecule | Koff(×10^−3 min^−1)
B1 | 2.51 ± 0.11 ×10^−3 min^−1
B2 | 20.3 ± 0.69 ×10^−3 min^−1
B3 | 16.1 ± 0.52 ×10^−3 min^−1
B4 | 8.19 ± 0.31 ×10^−3 min^−1
B5 | 9.15 ± 0.21 ×10^−3 min^−1
B6 | 10.2 ± 0.91 ×10^−3 min^−1
B7 | 14.9 ± 0.41 ×10^−3 min^−1
B8 | 9.73 ± 0.24 ×10^−3 min^−1
